Measured values from patent US20060128606A1, “Fibrils” (priority 1998, published 2006).
Marks after values point to notes of the source that are not given here. Ends that are not written are not given here.

Key:
Assay type in all cases: physicochemical
[1] = Hydrodynamic radii by NMR diffusion measurements (pulse field gradient); details: 10 mg/mL peptide in 50% acetonitrile
Method: All NMR spectra were acquired at ^1H frequencies of 500 or 600 MHz on homebuilt NMR spectrometers at the Oxford Centre for Molecular Sciences. One dimensional (1D) spectra typically contain 8K complex data points. Two dimensional (2D) experiments were acquired with 2K complex data points in the t2 dimension, and in phase-sensitive mode using time proportional phase incrementation (TPPI) for quadrature detection in t1. Diffusion constants were determined using pulse field gradient experiments with 8K complex points. Spectral widths of 8,000 Hz were used for all experiments. […] The water signal was suppressed either by using presaturation during the 1.2 s relaxation delay or by using a gradient double echo. […] Data were processed using Felix 2.3 (BIOSYM) on Sun workstations. Typically, the data were zero filled once, and processed with a double exponential window function for the 1D, and a sinebell squared function, shifted over 90° for each dimension of the 2D spectra. All spectra were referenced to an internal standard of dioxan at 3,743 ppm.

[2] = β-sheet content from CD ellipticity at 215 nm; details: 0.4 mg/mL
Method: CD spectra were recorded on a Jasco J720 spectropolarimeter using quartz cuvettes of 1 mm pathlength, at 1 nm intervals from 195 to 250 nm. Routinely, CD samples were examined 30 min after dilution from the peptide stock solution containing 50% acetonitrile.
Calculation of the β-sheet content was carried out using the ellipticity at 215 nm normalized to a per residue basis (units: deg cm^2/dmol).

[3] = Transmission electron microscopy screen for amyloid fibrils (CspB peptides); design: key: (++) strongly positive; (+) weakly positive; (0) no positive evidence; details: 2.0 mg/mL peptide
Method: Fibril formation and morphology were examined by transmission electron microscopy (EM). Peptide samples were dried onto formvar-and carbon-coated grids and negatively stained with 1% phosphotungstic acid (PTA). Grids were examined in a JEOL JEM-1010 electron microscope at 80 kV excitation voltage.
(§1) Analysis by three independent techniques of samples produced by dilution of concentrated solutions of all three peptides (10.0 mg/mL diluted to 2.0 mg/mL final concentration) from 50% to either 10 or 90% acetonitrile was carried out to screen for the presence of amyloid fibrils.
(§2) Aggregated states of all three peptides produced in 10 and 90% acetonitrile were analysed using these techniques.

[4] = Congo red binding assay of amyloid fibril formation (CspB peptides); design: key: (++) strongly positive; (+) weakly positive; (0) no positive evidence
Method: For the congo red binding assay of fibril formation, absorption spectra of a 10 μM solution of the dye in the assay buffer (5 mM phosphate pH 7.41 […]) before and after addition of the peptide solution were recorded on a Perkin Elmer (Foster City, Calif.) Lambda 16 spectrometer in the range of 400 to 700 nm.
Analysis by three independent techniques of samples produced by dilution of concentrated solutions of all three peptides ([…]) from 50% to either 10 or 90% acetonitrile was carried out to screen for the presence of amyloid fibrils.
as §2

[5] = Light microscopy of congo red stained precipitates, green birefringence (CspB peptides); design: key: (++) strongly positive; (+) weakly positive; (0) no positive evidence; details: 2.0 mg/mL peptide
Method: Yellow green birefringence indicates the presence of cross […].
as §1, §2

[6] = 1D NMR estimate of percentage of peptide visible in solution; details: 10 mg/mL in 50% acetonitrile
Method: A series of 1D spectra was used to estimate the percentage of peptide visible by solution NMR. These 1D spectra were all acquired with a gain of 7,000 and 256 scans on the same 500 MHz NMR spectrometer, in consecutive experiments. The concentration of a tryptophan solution was calculated from its absorbance at 280 nm. The integration of the indole resonances in these ID spectra from the tryptophan and peptide solutions was used to estimate the concentration of the peptide solutions.
Any small oligomers (whose signals merge with the monomer signal if conformational interconversion takes place on a time scale shorter than that resolvable by this method, i.e. less than ˜100 ms) can only exist as minor populations. […] The remainder must therefore be in large soluble aggregates whose overall tumbling times are too large to give resolvable NMR […].

[7] = Solubility in aqueous buffer or acetonitrile cosolvent; details: aqueous buffer; aqueous buffers, pH 6.0 to 7.2, no cosolvent; read-out: Solubility under similar conditions (aqueous buffers)
Method: In contrast, none of the three peptides are soluble under similar conditions to any significant extent; CspB-2, for example, dissolves only to ˜0.2 mg/mL. To solubilize the peptides, acetonitrile was used as a cosolvent at pH 4.0 (formic acid, unbuffered). […] A standardized set of combinations of peptide concentration and solvent composition was used, involving peptide concentrations of 0.4, 2 and 10 mg/mL, and acetonitrile concentrations of 10, 50 and 90%.

[8] = Congo Red absorption and birefringence of muscle acylphosphatase aggregate
Method: (§3) Muscle acylphosphatase was purified as previously reported (A. Modesti et al. (1995) Protein Express Purif. 6, 799) and incubated at a concentration of 0.375 mg/ml (34 μM) in 25% v/v trifluoroethanol (TFE), acetate buffer, pH 5.5 at 25° C. under constant stirring. Aliquots were withdrawn at regular time intervals for electron microscopy and spectroscopic analysis. Circular dichroism spectra were acquired directly by means of a Jasco J-720 spectropolarimeter and cuvettes of 1 mm path length. Electron micrographs were acquired by a JEM 1010 transmission electron microscope at 80 kV excitation voltage. A 3 μL sample of protein solution was placed and dried for five minutes on a Formvar and carbon-coated grid. The sample was then stained with 3 μL 1% phosphotungstic acid solution and observed at magnifications of 25-100k.
(§4) Thioflavin T and Congo Red assays were performed according to Le Vine III (H. Le Vine III (1995) Amyloid: Int. J. Exp. Clin. Invest. 2,1.) and Klunk (W. E. Klunk et al. (1989) J. Histochem. Cytochem. 37, 1293), respectively. For Congo Red birefringence experiments aliquots of protein were air dried onto glass slides. The resulting films were stained with a saturated solution of Congo red and sodium chloride, corrected to pH 10.0 with 1% sodium hydroxide. The stained slides were examined by an optical microscope between crossed polarizers.

[9] = Thioflavin T assay of muscle acylphosphatase aggregate; details: aggregate after two weeks in 25% v/v TFE, pH 5.5, 25° C.
Method: as §3, §4

[10] = 10% acetonitrile, first experiment, 1.6 mg/mL peptide
[11] = 10% acetonitrile, second experiment, 2.0 mg/mL peptide
[12] = 90% acetonitrile, first experiment, 1.6 mg/mL peptide
[13] = 90% acetonitrile, second experiment, 2.0 mg/mL peptide
[14] = 10% acetonitrile, first experiment
[15] = 90% acetonitrile, first experiment
[16] = 90% acetonitrile, second experiment

Molecule	Hydrodynamic Stokes radius [1]	β structure content (CD) ([2]; 90% acetonitrile)	Amyloid fibril formation, EM ([3]; 10% acetonitrile)	Amyloid fibril formation, EM ([3]; 90% acetonitrile)	Amyloid fibril formation, Congo Red [4, 10]	Amyloid fibril formation, Congo Red [4, 11]	Amyloid fibril formation, Congo Red [4, 12]	Amyloid fibril formation, Congo Red [4, 13]	Amyloid fibril formation, LM green birefringence [5, 14]	Amyloid fibril formation, LM green birefringence ([5]; 10% acetonitrile, second experiment)	Amyloid fibril formation, LM green birefringence [5, 15]	Amyloid fibril formation, LM green birefringence [5, 16]	Total peptide concentration detectable in the NMR spectra [6]	β-sheet content (CD) ([2]; 2.5% acetonitrile)	β-sheet content (CD) ([2]; 15 to 70% acetonitrile)	β-sheet content (CD) ([2]; 97.5% acetonitrile)	solubility [7]	Congo Red birefringence under cross-polarised light ([8]; fibrils after two weeks of incubation)	Congo Red difference spectrum, maximum intensity ([8]; spectrum of aggregate plus dye minus aggregate alone and dye alone)	Increase of the 482 nm fluorescence (excitation 440 nm) of Thioflavin T [9]
CspB-1: peptide, residues 1-22 of B. subtilis cold shock protein CspB, corresponding to the first two β-strands (MLEGKVKWFNSEKGFGFIEVEG; UniProt P32081 1-22, looked up, fragment)	1.60^a nm	~70%	++	0	++, ++	++, ++	++	0	++, ++	++, ++	++, ++	++, ++	~20%	–	–	–	–	–	–	–
MLEGKVKWFNSEKGFGFIEVEGQDDVFVHFSAIQG [CspB-2]	1.68 nm	–	++	++	++	0	0	++	+	–	++	0	–	100%	~20%	71.5%	~200 µg/mL	–	–	–
muscle acylphosphatase: human muscle acylphosphatase protein, forms amyloid fibrils in 25% v/v trifluoroethanol (protein, UniProt P14621 2-99, looked up) Acylphosphatase-2: STAQSLKSVDYEVFGRVQGVCFRMYTEDEARKIGVVGWVKNTSKGTVTGQVQGPEDKVNSMKSWLSKVGSPSSRIDRTNFSNEKTISKLEYSNFSIRY	–	–	–	–	–	–	–	–	–	–	–	–	–	–	–	–	–	characteristic green birefringence	540 nm	three fold increase
